Drawing on US20230041268A1, this text covers EC50 of peptide for one molecule.

The target in this test is CMV pp65 peptide on HLA-A*02:01 (human). Description: CD137 up-regulation; peptide titration on the HLA-A02:01 positive B cell line; full-length, on cells. Particulars: chains Valpha:Vbeta.

B1: TCR6-2 (CMV A2/pp65 495-503-specific) (protein)
chain 1: GQQLNQSPQSMFIQEGEDVSMNCTSSSIFNTWLWYKQDPGEGPVLLIALYKAGELTSNGRLTAQFGITRKDSFLNISASIPSDVGIYFCAGPMKTSYDKVIFGPGTSLSVIP
chain 2: DAGVIQSPRHEVTEMGQEVTLRCKPISGHDYLFWYRQTMMRGLELLIYFNNNVPIDDSGMPEDRFSAKMPNASFSTLKIQPSEPRDSAVYFCASSSANYGYTFGSGTRLTVV
Consider B1, for which the EC50 of peptide came out at 10 nM.
